Measurements reported in article PMC2107256 (The Journal of Cell Biology, 1967).
Several values for one entry are separate records, joined by “and”; a condition that tells them apart may be missing. Identical values can stand only once. Like-named read-outs stand apart in the source and are kept apart here. Each block holds one molecule with its values, some of them ahead of it.

What was measured:
Assay in all cases: AUC
[1] = molecular target: 22S protein of the mitotic apparatus, Arbacia punctulata (Arbacia punctulata)
[2] = molecular target: 22S protein of the mitotic apparatus, Arbacia punctulata (Arbacia punctulata); remark: listed apart in the source
[3] = molecular target: 22S protein of the mitotic apparatus, Arbacia punctulata (Arbacia punctulata); remark: listed apart in the source
[4] = molecular target: 22S protein of the mitotic apparatus, Arbacia punctulata (Arbacia punctulata); remark: listed apart in the source
[5] = molecular target: 22S protein of the mitotic apparatus, Arbacia punctulata (Arbacia punctulata); remark: listed apart in the source
[6] = molecular target: 22S protein of the mitotic apparatus, Arbacia punctulata (Arbacia punctulata); remark: listed apart in the source
[7] = molecular target: 22S protein of the mitotic apparatus, Strongylocentrotus droebachiensis (Strongylocentrotus droebachiensis)
[8] = molecular target: 22S protein of the mitotic apparatus, Strongylocentrotus droebachiensis (Strongylocentrotus droebachiensis); remark: listed apart in the source
[9] = molecular target: 22S protein of the mitotic apparatus, Strongylocentrotus droebachiensis (Strongylocentrotus droebachiensis); remark: listed apart in the source
[10] = molecular target: the molecule itself
[11] = molecular target: the molecule itself; remark: listed apart in the source

stoichiometry N [1]: 8
stoichiometry N [2]: 2
stoichiometry N [3]: 4 and 2 and 6
stoichiometry N [4]: 6 and 4 and 2
stoichiometry N [5]: 2
stoichiometry N [6]: 2
Molecule: 22S protein of the mitotic apparatus, Arbacia punctulata (natural protein)

stoichiometry N [7]: 8
stoichiometry N [8]: 2
stoichiometry N [9]: 2
Molecule: 22S protein of the mitotic apparatus, Strongylocentrotus droebachiensis (natural protein)

B1: 22S protein of the mitotic apparatus, Strongylocentrotus purpuratus (natural protein)
chain: VPSGSLGSRPGTCPPQPSDQVMIEATRCSYVYGLTWDWNCNSQGQENYKCCQYENDIRICVPPIPADVDEEVGVEQPSQSVDQVRQAIQKTQDFIRKVGLYPAPDQRRRTTPTPDTVRWCVSSRCQMTKCQRMVSEFTYSPNMVPRKQWKCTQATSQEQCMFWIEQGWADIMTTREGQVYSANTTFNLKPIAYETTINDQQPEIQILKHYQNVTFALKSSRLVNPNTFSELRDKTTCHAGIDMPDFDMPASFADPVCNLIKEGVIPVTGNYIESFSDFVQESCVPGVLNMTYNKNGTYPLSLVTLCEDQQYKYSGIKGALSCLESGKGQVTFVDQKVIKKIMSDPNVRDNFQVVCRDESRPLDEEIFTDVTCHVGHTARPTIFINKNNTQQKETDIKTLVVKMMELYGNTDRDVNFNIFDSSVYDCGKCQMTGKPLNKNLIFLEESNTMKIVDDSKVYAGEVYAAYNVCSKLVPKPRAKICVTNVTEYEACRRFKGIAENIPEVKKVAWGCVLANSSIECMQAVHNNTADLFKANPMETFIAGKEFLLDPLMSVHRNDSVTMNHTYTRTLAVIKRSSLAKFPGLLSVPEGQPKYIKDLWKLKICSAGLKNFSAFHSPIGYLLANGTIPRIGSVFESVNRYFQATCVPEIEPETWRLDSDLLLGREMNWGFSSLNMYNFTGQEWLLWNTPATWNFLTYNRKVSTGLDIKKLIELKKQNLTSHIFNQNLSSPRNVELLDDLVGVEGISDLVKGVQDTIGPEGKQKMNMLRDRLSNSFPNFEAVRTLSDKVDIVNKMKDARQQRLQNKDHPFGNVIQETFQGHLMVDVFSKLLELRSDKISTLEEIISHVKTIPYLTDFKDVEITTVLKHPAIMSYVEIYFPRLSQTFVEPFDNVELREREFNRYTNPLWLSPKVHTYLDLVKNHQTEITKTCNSNLPLNFKGYEGALRCLKSGVADLASSTSRPSVTRTLRDTDLSTGWVHLQRPPPSLPQRQVVEIDVNMDIAKVCNFGEVMNPVLVTAYNTSGSWRWNITKALMIAHQSVALPALFGEGTVMGKDYDMLLPIAPLNQSYQPFLGSKPLRSMEAIVKASSYDWFKDQTGICYGETYTNIVKQRNETCQAIVKDVTCVGTPRMKKISVGRFGAKQFKMIKMCSRPSKFVRKMADFQCDNGFGYLKPVITAVACECMLCEEMIEYNTSFTEDNMWSDVSNKYVLTGEQDIYRQIPIWGNNSYFYDHTLNKNFELGNHSIIVEHVQTVVVERPSPGILSQVNSEVDPEVQVQMDSASLTKTCETVWNGQSWLPERFQGYKTSGSCVVPETGANAKSRVDRFRQIMQRKQQLVDHHH
modifications: carbohydrate 5-6% (orcein assay) or 7-8% (anthrone test), several per cent glucosamine; sites not stated
stoichiometry N [10]: 2
stoichiometry N [11]: 8
